Numbering of substitutions follows the chain as printed.

Experiment [1] deals with truncated murine LEP-R construct (D1-D5) lacking the two membrane-proximal FnIII domains (murine). The experiment is described as follows: ITC.
Experiment [2] has as its target T1, extracellular region (domains D1-D7) of murine LEP-R (murine, UniProt P48356 22-839).
T1 sequence (looked up): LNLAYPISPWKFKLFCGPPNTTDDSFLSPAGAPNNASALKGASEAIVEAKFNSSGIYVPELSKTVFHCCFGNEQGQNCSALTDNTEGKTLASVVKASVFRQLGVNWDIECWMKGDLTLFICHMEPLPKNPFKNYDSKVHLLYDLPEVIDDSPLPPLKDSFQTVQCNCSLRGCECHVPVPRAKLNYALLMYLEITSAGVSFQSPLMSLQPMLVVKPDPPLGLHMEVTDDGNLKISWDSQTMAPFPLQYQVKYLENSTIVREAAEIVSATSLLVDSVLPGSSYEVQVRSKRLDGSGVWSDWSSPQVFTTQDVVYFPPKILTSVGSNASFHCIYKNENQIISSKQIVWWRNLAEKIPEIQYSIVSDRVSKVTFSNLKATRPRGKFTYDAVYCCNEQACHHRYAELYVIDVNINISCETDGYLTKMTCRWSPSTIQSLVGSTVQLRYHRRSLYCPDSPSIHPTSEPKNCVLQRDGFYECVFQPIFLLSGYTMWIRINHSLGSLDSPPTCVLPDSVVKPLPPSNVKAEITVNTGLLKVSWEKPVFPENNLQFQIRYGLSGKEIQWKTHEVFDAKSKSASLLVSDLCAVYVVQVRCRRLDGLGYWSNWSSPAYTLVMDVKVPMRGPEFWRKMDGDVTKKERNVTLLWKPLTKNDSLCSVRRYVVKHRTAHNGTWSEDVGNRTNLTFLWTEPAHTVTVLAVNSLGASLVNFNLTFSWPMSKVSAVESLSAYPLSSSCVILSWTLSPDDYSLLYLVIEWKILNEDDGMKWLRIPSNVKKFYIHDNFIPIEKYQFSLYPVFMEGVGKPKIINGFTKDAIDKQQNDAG
The experiment can be described thus: ITC. In general terms: Isothermal titration calorimetry measures the heat released or taken up as one component is titrated into another.

For experiment [3], the target named is T2, LEP-R[D1-D7] construct bearing the IgD mutation L370A (murine, UniProt P48356 22-839, L370A).
T2 sequence (looked up): T1 sequence (looked up) with L349A
The experiment can be described thus: negative-stain single-particle electron microscopy.

truncated murine LEP-R construct (D1-D5) lacking the two membrane-proximal FnIII domains (murine), sequence (P48356 whole entry, the tested form may be a part): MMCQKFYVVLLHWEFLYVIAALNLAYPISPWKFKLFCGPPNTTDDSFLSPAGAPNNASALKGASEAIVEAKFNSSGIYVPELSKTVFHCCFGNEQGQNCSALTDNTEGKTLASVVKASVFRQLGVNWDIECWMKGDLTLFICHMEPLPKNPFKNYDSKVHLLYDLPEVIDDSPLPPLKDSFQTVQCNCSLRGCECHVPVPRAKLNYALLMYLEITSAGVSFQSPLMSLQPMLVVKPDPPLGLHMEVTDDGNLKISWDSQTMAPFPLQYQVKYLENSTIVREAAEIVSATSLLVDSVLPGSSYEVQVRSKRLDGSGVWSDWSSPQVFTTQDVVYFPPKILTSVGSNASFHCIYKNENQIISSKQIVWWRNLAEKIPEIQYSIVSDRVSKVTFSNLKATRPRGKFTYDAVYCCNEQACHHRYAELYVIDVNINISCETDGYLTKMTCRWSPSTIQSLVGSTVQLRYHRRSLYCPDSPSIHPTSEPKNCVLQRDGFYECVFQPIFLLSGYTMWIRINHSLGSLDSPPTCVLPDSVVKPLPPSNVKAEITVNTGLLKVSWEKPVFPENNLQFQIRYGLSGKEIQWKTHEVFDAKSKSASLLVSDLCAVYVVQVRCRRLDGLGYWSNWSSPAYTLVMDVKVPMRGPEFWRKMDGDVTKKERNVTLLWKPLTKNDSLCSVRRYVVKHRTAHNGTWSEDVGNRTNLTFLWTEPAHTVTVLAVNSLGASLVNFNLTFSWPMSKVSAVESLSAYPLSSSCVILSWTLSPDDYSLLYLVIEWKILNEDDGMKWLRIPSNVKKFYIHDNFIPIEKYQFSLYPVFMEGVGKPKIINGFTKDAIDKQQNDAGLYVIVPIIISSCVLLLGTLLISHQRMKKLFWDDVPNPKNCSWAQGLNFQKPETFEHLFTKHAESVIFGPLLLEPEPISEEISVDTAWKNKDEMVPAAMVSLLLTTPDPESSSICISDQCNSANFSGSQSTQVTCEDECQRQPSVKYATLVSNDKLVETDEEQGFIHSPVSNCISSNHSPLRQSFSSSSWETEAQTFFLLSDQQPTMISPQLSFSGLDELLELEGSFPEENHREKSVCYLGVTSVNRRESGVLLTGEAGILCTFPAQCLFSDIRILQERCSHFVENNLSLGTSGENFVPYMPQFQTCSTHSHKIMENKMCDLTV

Broadly, the Kd is a measure of binding affinity in units of concentration. A lower Kd goes with tighter binding. As for “recombinant murine leptin (from UniProt P41160 22-167) (ligand)”, in experiment [1], the Kd is 17 nM and the stoichiometry N (receptor:ligand) worked out at 1.

B1: recombinant murine leptin (ligand, UniProt P41160 22-167, looked up)
chain: VPIQKVQDDTKTLIKTIVTRINDISHTQSVSAKQRVTGLDFIPGLHPILSLSKMDQTLAVYQQVLTSLPSQNVLQIANDLENLRDLLHLLAFSKSCSLPQTSGLQKPESLDGVLEASLYSTEVVALSRLQGSLQDILQQLDVSPEC
In the case of B1, the “stoichiometry N” value in experiment [2] is ~1 receptor:ligand. Further, the binding result in experiment [3] is recorded as “binds”.

For the origin of these results see PMC3513567 (Molecular cell, 2012).
